Assay results published in patent US20120190612A1, “METHODS OF TREATMENT” (CRC FOR ASTHMA AND AIRWAYS LTD., priority 2009, published 2012).

Assays:
LAM nodule cells = assay: MTT cell viability assay, LAM nodule cells; type: cell-based; settings: intermediate layer, centre and outer nodule cells, 72 hrs
Experimental: To determine the function of lamstatin, human primary lymphatic endothelial cells (HMVEC-LLy cells) were exposed to various concentrations of lamstatin and an MTT assay was performed. As a comparison, commercially available tumstatin was used. Specifically, to assess cell viability 4×10^3 HMVEC-LLy cells were seeded per well in 100 μl complete EBM-2 media (with bullet kit, Lonza) and incubated for 2 hrs at 37° C., 5% CO2. After this period lamstatin, tumstatin and respective vehicles (1 nM EDTA, pH 3.0) were prepared in complete EBM-2 as serial dilutions in a separate plate and added. Cells were grown for 24 hrs before MTT (1 mg/mL in PBS) was added. After 6 h of further incubation cells were lysed overnight with 10% SDS/0.01 M HCl and measured the following day in a plate reader at 570 nm.
The inventors isolated lung cells from a LAM patient, which cells originated from the LAM nodules. These cells were termed according to their location within the nodule, as intermediate layer in the nodule, centre cells and outer nodule cells. These cells were then treated with lamstatin or tumstatin and cell viability measured after 72 hrs. The MTT viability assay was performed as described above in Example 1.

[1] = test system: lung adenocarcinoma cells (LNM35 AAV-GFP); assay: Mouse ear tumour plug model of tumour-induced lymphangiogenesis; type: in vivo
Experimental: A mouse ear tumour plug model was utilized in which green fluorescent protein (GFP)-tagged lung adenocarcinoma cells (LNM35 AAV-GFP) were injected between the two layers of skin of the ears of NOD/SCID mice. 1×10^6 tumour cells were embedded in […] growth factor free Matrigel® medium enriched with vehicle (1 nM EDTA, pH3.0) or lamstatin at either 10 μg/mL or 100 μg/mL. Mice were divided into three groups.
Group 1 (n=9): One ear of each mouse injected with tumour cells+10 μg/mL lamstatin; the other ear injected with tumour cells+vehicle control. Group 2 (n=9): One ear of each mouse injected with tumour cells+100 μg/mL lamstatin; the other ear injected with tumour cells+vehicle control. Group 3 (n=3): Each ear injected with Matrigel® only.
Injections were single shots such that at least 25 μL was injected. 12 days after injection were sacrificed by anesthetisation and cervical dislocation. Ears were removed for whole mount staining. Flaps of skin from each ear were carefully separated, fixed and stained for either the lymphatic endothelial cell specific marker LyVe-1 (rabbit polyclonal anti-LyVe-1 antibody detected using anti-rabbit Alexafluor 647) or the vascular endothelial cell specific marker PECAM (CD31 rat anti-mouse antibody clone MEC13.3 (Pharmingen), detected with […]). Tumour cells were visualised by detection of GFP expression. Images of representative regions of ears were obtained using a confocal microscope and LyVe-1 or PECAM staining was quantified.
Using the LyVe-1 whole mount stained mouse ear sections, the inventors further investigated the morphology of lymphatic vessel formation. Specifically confocal images were loaded into Image J software (www.sbweb.nih.gov/ij/), a 5×5 grid overlayed and vessels examined for branching and looping. The functionality of a lymphatic network is based on its maturity and in general it is accepted that a tumour induces a rather immature network formation. Reconnecting vessels (measured as loops) and increased branching (measured as branches) are signs of immature vessels induced by, for example, a tumour (see for example Shayan et al. Growth Factors 25, 417-425, 2007).
Branches were defined as two clearly distinguishable vessels that separate out without rejoining. Loops were defined as small, circular vessel structures in the same focal plane. Branches or loops were counted separately per image and mean values were calculated for each treatment group.

[2] = lamstatin 10 or 100 μg/mL, CP17 5 or 50 μA, vs vehicle

B1: lamstatin: NC1 domain of the α5 chain of collagen type IV; human amino acid sequence SEQ ID NO:1; recombinant (protein, listed as Homo sapiens)
chain: GFLITRHSQTTDAPQCPQGTLQVYEGFSLLYVQGNKRAHGQDLGTAGSCLRRFSTMPFMFCNINNVCNFASRNDYSYWLSTPEPMPMSMQPLKGQSIQPFISRCAVCEAPAVVIAVHSQTIQIPHCPQGWDSLWIGYSFMMHTSAGAEGSGQALASPGSCLEEFRSAPFIECHGRGTCNYYANSYSFWLATVDVSDMFSKPQSETLKAGDLRTRISRCQVCMKRT
LAM nodule cells
  reduction of cell viability (MTT): effective in reducing cell viability of all nodule cell types at both high (e.g. 10 μg/mL) and low (1.25-2.5 μg/mL) concentrations
[1]; 10 μg/mL
  lymphatic vessel formation around the tumour (visual inspection): reduction in the number of lymphatic vessels and a dilation of lymphatic vessels
[1]; 10 μg/mL or 100 μg/mL, 12 days
  PECAM staining in the vicinity of tumour cells: no obvious reduction
[1]; 100 μg/mL, compared to 10 μg/mL
  lymphatic vessel formation around the tumour (visual inspection): further reduction in lymphatic vessel network density
[1]; 10 and 100 μg/mL
  development of blood vasculature around the tumour: no discernable effect
[1]; both 10 μg/mL and 100 μg/mL, whole mount ears, 12 days
  reduction of mean intensity of LyVe-1 staining compared to vehicle only: approximately 60%
[1]; [2]
  number of branches of lymphatic vessels: significantly reduced
  number of loops of lymphatic vessels: significantly reduced
